Data: article PMC4072508, “Genome-Wide Prediction and Validation of Peptides That Bind Human Prosurvival Bcl-2 Proteins” (PLoS Computational Biology, 2014)

T1: Bfl-1, Q16548
T1 chain: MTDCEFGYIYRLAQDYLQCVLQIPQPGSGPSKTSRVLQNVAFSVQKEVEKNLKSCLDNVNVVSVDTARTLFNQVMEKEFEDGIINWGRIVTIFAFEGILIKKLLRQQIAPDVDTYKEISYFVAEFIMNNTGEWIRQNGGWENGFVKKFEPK

T2: Mcl-1, Q07820
T2 chain: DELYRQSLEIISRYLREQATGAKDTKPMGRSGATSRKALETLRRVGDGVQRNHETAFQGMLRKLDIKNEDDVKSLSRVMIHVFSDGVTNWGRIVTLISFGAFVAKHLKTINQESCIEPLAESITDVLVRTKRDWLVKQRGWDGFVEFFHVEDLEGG


Biological target: T1, Bfl-1, Q16548
Experiment: peptide SPOT array, c-Myc-tagged receptor at 1 uM or 100 nM, anti-c-Myc-Cy3

Row | Binder | SPOT signal as a fraction of Bim BH3's signal on the same receptor and array
1 | TGSLCEIATTDSFEGDGFLWVKSGSV [CRB1] | 0.03
2 | NGGLLEFHKSLQEILDKNDHWFDIDP [DZIP3] | 0.05
3 | LALLAQPSHLDRQVARSVFGHICSHL [MYBBP1A] | 0.38
4 | VDSIRPKCQEDRHLCDQFSAEIARRR [MCF2L] | 0.1
5 | QCPIFRLGDIFRETGDNFSDVAIQGG [P2RX7] | 0.04
6 | MRSQLGKATALAIMLDKLWWADQVSE [LRP1] | 0.09
7 | QEQEQHVPFDIHTYGDQLVSRFPQLN [NCAPH2] | 0.05
8 | APEEDFFSIHIRIVLDWTEGLFNACG [CYBB] | 0.04
9 | APGEEDLCAAFNVICDNVGKDWRRLA [FADD] | 0.04
10 | SMRRNAMGVGLVFELDLFTTRHISHW [DNAH10] | 0.17
11 | RAKASSLSEELKHFADGLETDGTLQK [DSN1] | 0.04
12 | AEVMRQRGINMRYLLKVLELVLRSPA [KIAA0664] | 0.49
13 | QASREAGAAADRNVAQRLFENYQTQS [CCDC68] | 0.04
14 | HTALENCASLLCIRADELQEALTSHC [MYO3A] | 0.03
15 | YFKLFRASGDMRTNLDNYLYEIQLSS [IGF2R] | 0.37
16 | GVMTQEVGQLLQDMLDDVYQQYRSLT [HUWE1] | 0.01

Other lines, results leading:

Row | SPOT signal as a fraction of Bim BH3's signal on the same receptor and array | Binder
17 | 0.03 | HHSSQEMSSEYREYLDSFGKCPGGRN [PCYT2]
18 | 0.06 | SFLSAHCASHDAWFGDSLTSLSQRLQ [TMEM214]
19 | 0.04 | DSLLWKLAGLLRESLDVVLSGCSTLS [STK11IP]
20 | 0.21 | ERLKGQLCDVLLIVGDQKFRAHKNVL [ZNF295]
21 | 0.22 | LMARPAVALHDQSIADGFKEAVRYVL [SOS2]
22 | 0.07 | LALMMQLARELKTLLRDLGMAVVVTN [RAD51L3]
23 | 0.05 | LFWTPLLVVLDAGLGDTEAQQTTLHP [SGCA]
24 | 0.53 | WVKSIRICTPMGKLLDSCHPLTRKVP [PROK2]
25 | 0.04 | FGEYSGISENIILVGDDFWIPETSFI [ROS1]

Biological target: T2, Mcl-1, Q07820
Experiment: as above

Row | Binder | SPOT signal as a fraction of Bim BH3's signal on the same receptor and array
26 | TGSLCEIATTDSFEGDGFLWVKSGSV [CRB1] | 0.04
27 | NGGLLEFHKSLQEILDKNDHWFDIDP [DZIP3] | 0.06
28 | LALLAQPSHLDRQVARSVFGHICSHL [MYBBP1A] | 0.63
29 | VDSIRPKCQEDRHLCDQFSAEIARRR [MCF2L] | 0.08
30 | QCPIFRLGDIFRETGDNFSDVAIQGG [P2RX7] | 0.05
31 | MRSQLGKATALAIMLDKLWWADQVSE [LRP1] | 0.18
32 | QEQEQHVPFDIHTYGDQLVSRFPQLN [NCAPH2] | 0.04
33 | APEEDFFSIHIRIVLDWTEGLFNACG [CYBB] | 0.04
34 | APGEEDLCAAFNVICDNVGKDWRRLA [FADD] | 0.16
35 | SMRRNAMGVGLVFELDLFTTRHISHW [DNAH10] | 0.18
36 | RAKASSLSEELKHFADGLETDGTLQK [DSN1] | 0.05
37 | AEVMRQRGINMRYLLKVLELVLRSPA [KIAA0664] | 0.71
38 | QASREAGAAADRNVAQRLFENYQTQS [CCDC68] | 0.04
39 | HTALENCASLLCIRADELQEALTSHC [MYO3A] | 0.03
40 | YFKLFRASGDMRTNLDNYLYEIQLSS [IGF2R] | 0.39
41 | GVMTQEVGQLLQDMLDDVYQQYRSLT [HUWE1] | 0.02

Other lines, results leading:

Row | SPOT signal as a fraction of Bim BH3's signal on the same receptor and array | Binder
42 | 0.04 | HHSSQEMSSEYREYLDSFGKCPGGRN [PCYT2]
43 | 0.05 | SFLSAHCASHDAWFGDSLTSLSQRLQ [TMEM214]
44 | 0.05 | DSLLWKLAGLLRESLDVVLSGCSTLS [STK11IP]
45 | 0.25 | ERLKGQLCDVLLIVGDQKFRAHKNVL [ZNF295]
46 | 0.45 | LMARPAVALHDQSIADGFKEAVRYVL [SOS2]
47 | 0.1 | LALMMQLARELKTLLRDLGMAVVVTN [RAD51L3]
48 | 0.04 | LFWTPLLVVLDAGLGDTEAQQTTLHP [SGCA]
49 | 0.56 | WVKSIRICTPMGKLLDSCHPLTRKVP [PROK2]
50 | 0.04 | FGEYSGISENIILVGDDFWIPETSFI [ROS1]

biological target: Bcl-xL, Q07817; experiment: as above
Sequence (Q07817 1-209): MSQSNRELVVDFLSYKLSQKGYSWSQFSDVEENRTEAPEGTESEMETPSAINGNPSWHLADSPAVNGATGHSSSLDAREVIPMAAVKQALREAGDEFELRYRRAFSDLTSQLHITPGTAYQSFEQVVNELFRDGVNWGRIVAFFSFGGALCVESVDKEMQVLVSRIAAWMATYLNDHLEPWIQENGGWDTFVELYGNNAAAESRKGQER

Row | Binder | SPOT signal as a fraction of Bim BH3's signal on the same receptor and array
51 | TGSLCEIATTDSFEGDGFLWVKSGSV [CRB1] | 0.06
52 | NGGLLEFHKSLQEILDKNDHWFDIDP [DZIP3] | 0.12
53 | LALLAQPSHLDRQVARSVFGHICSHL [MYBBP1A] | 0.68
54 | VDSIRPKCQEDRHLCDQFSAEIARRR [MCF2L] | 0.25
55 | QCPIFRLGDIFRETGDNFSDVAIQGG [P2RX7] | 0.07
56 | MRSQLGKATALAIMLDKLWWADQVSE [LRP1] | 0.12
57 | QEQEQHVPFDIHTYGDQLVSRFPQLN [NCAPH2] | 0.06
58 | APEEDFFSIHIRIVLDWTEGLFNACG [CYBB] | 0.06
59 | APGEEDLCAAFNVICDNVGKDWRRLA [FADD] | 0.08
60 | SMRRNAMGVGLVFELDLFTTRHISHW [DNAH10] | 0.21
61 | RAKASSLSEELKHFADGLETDGTLQK [DSN1] | 0.07
62 | AEVMRQRGINMRYLLKVLELVLRSPA [KIAA0664] | 0.74
63 | QASREAGAAADRNVAQRLFENYQTQS [CCDC68] | 0.05
64 | HTALENCASLLCIRADELQEALTSHC [MYO3A] | 0.07
65 | YFKLFRASGDMRTNLDNYLYEIQLSS [IGF2R] | 0.28
66 | GVMTQEVGQLLQDMLDDVYQQYRSLT [HUWE1] | 0.03

Further lines, results first:

Row | SPOT signal as a fraction of Bim BH3's signal on the same receptor and array | Binder
67 | 0.05 | HHSSQEMSSEYREYLDSFGKCPGGRN [PCYT2]
68 | 0.07 | SFLSAHCASHDAWFGDSLTSLSQRLQ [TMEM214]
69 | 0.06 | DSLLWKLAGLLRESLDVVLSGCSTLS [STK11IP]
70 | 0.38 | ERLKGQLCDVLLIVGDQKFRAHKNVL [ZNF295]
71 | 0.17 | LMARPAVALHDQSIADGFKEAVRYVL [SOS2]
72 | 0.11 | LALMMQLARELKTLLRDLGMAVVVTN [RAD51L3]
73 | 0.06 | LFWTPLLVVLDAGLGDTEAQQTTLHP [SGCA]
74 | 1.23 | WVKSIRICTPMGKLLDSCHPLTRKVP [PROK2]
75 | 0.07 | FGEYSGISENIILVGDDFWIPETSFI [ROS1]
